Test results taken from patent publication US20260365696A1, “INHIBITORS OF PTP1B / NCK1 INTERACTION AND METHODS OF MAKING AND USING SAME” (Radella Pharmaceuticals LLC, priority 2023, published 2026).
Where two headings read alike, the source gives them in different places. Non-standard residues stand in square brackets, D forms with d. pGlu = O=C1CC[C@@H](C(=O)O)N1

T1: NCK1 SH3-2 domain (human)
T1 chain: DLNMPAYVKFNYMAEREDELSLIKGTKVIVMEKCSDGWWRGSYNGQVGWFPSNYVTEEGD


Columns and labels:
Test in all cases: ITC
[1] = molecular target: T1, NCK1 SH3-2 domain
[2] = molecular target: T1, NCK1 SH3-2 domain
[3] = molecular target: T1, NCK1 SH3-2 domain
[4] = molecular target: T1, NCK1 SH3-2 domain
[5] = molecular target: T1, NCK1 SH3-2 domain
[6] = molecular target: T1, NCK1 SH3-2 domain
[7] = molecular target: T1, NCK1 SH3-2 domain

Binder	Kd [2] [µM]	binding result [7]	further results
Ac-PPRPPKR-NH2 [MD18]	< 300	–	Kd [1]: < 193 µM
[pGlu]RPPKR-NH2 [MH044]	–	–	binding result [3]: no binding
Ac-PRPPKR-NH2 [MD20]	< 300	–	Kd [1]: < 193 µM; Kd [4]: < 300 µM
Ac-APRPPKR-NH2 [MH047]	< 300	–	Kd [5]: < 300 µM; Kd [6]: < 300 µM

Further lines, with some results ahead:

Kd [2] [µM]	binding result [7]	Binder	further results
–	no binding	H-PAVPPRP-NH2 [MH081]	–
–	no binding	Ac-SPAKGEPSLPEK-NH2 [MH133]	–
–	no binding	Ac-PAVPPRP-NH2 [MH082]	–
